The target in assay [1] is T1, human CD1a expressed on cells (human, UniProt P06126 17-327; P61769 21-119).
T1 construct: also called HEK - CD1a; C1R - CD1a
The assay can be described thus: flow cytometry of ear skin cells of CD1a transgenic mice given isotype control (CD1a : iso), stained with HI149; gated population not named on the sheet; no percent sign printed.

Assay [2] has as its target T1, human CD1a expressed on cells. The assay can be described thus: flow cytometry of ear skin cells of CD1a transgenic mice given antibody 116 100 µg i.p. on days 0, 2, 4 (CD1a : OX116), stained with HI149 on day 5; the cloud lies on the lower edge of the gate; no percent sign printed. On the technique in general: In flow cytometry, cells or beads pass a laser one at a time.

Assay [3] concerns the target T2, human CD1a protein (pool B) (human, UniProt P06126 18-295, limits assumed).
T2 construct: Recombinant protein of the ELISA (coated) and the Biacore T200 titration; whole entry named; also called human CD1a pool B; full length CD1a
The assay can be described thus: ELISA, 0.316 µg/ml antibody. (In general: An ELISA detects its analyte on a solid surface through an enzyme-linked reagent.)

Assay [4] addresses T2, human CD1a protein (pool B). The assay is described as follows: ELISA, 0.0316 µg/ml antibody.
The target is the same in assay [5]. The assay is described as follows: ELISA, 3.16 µg/ml antibody.
For assay [6], the target named is chimeric CD1a pool B protein [human CD1a lipid binding domain, mouse CD1d Ig domain] (human; mouse) (UniProt P06126). The assay can be described thus: ELISA, 3.16 µg/ml antibody.
chimeric CD1a pool B protein [human CD1a lipid binding domain, mouse CD1d Ig domain] (human; mouse), sequence (P06126 other isoform, or with tags, fused parts or gaps mutant limits assumed): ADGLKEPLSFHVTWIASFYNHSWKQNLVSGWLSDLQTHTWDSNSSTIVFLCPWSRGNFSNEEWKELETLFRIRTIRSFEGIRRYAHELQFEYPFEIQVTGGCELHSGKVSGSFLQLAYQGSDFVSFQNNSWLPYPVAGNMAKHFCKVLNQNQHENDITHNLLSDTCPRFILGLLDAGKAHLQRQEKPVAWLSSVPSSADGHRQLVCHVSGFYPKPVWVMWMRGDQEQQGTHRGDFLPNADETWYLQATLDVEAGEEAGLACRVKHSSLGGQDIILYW
Assay [7] deals with T3, Cynomolgus monkey CD1a protein (Cynomolgus monkey).
T3 chain: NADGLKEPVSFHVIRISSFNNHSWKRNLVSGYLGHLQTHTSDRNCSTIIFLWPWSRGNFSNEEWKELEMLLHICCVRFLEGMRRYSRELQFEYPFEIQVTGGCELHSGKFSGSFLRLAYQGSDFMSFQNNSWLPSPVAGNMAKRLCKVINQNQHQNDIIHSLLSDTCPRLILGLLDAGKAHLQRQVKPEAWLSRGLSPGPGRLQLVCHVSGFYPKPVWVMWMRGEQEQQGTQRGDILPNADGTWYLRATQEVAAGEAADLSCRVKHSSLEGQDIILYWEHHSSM
The assay can be described thus: ELISA, 0.1 µg/ml antibody.

Assay [8] has as its target chimeric CD1a pool B protein [human CD1a lipid binding domain, mouse CD1d Ig domain] (human; mouse) (UniProt P06126). The assay is described as follows: ELISA, 10 µg/ml antibody.
The target of assay [9] is Chinese variant CD1a protein (human) (UniProt P06126). The assay can be described thus: ELISA, 10 µg/ml antibody.
Chinese variant CD1a protein (human), sequence (P06126 18-295, change not shown): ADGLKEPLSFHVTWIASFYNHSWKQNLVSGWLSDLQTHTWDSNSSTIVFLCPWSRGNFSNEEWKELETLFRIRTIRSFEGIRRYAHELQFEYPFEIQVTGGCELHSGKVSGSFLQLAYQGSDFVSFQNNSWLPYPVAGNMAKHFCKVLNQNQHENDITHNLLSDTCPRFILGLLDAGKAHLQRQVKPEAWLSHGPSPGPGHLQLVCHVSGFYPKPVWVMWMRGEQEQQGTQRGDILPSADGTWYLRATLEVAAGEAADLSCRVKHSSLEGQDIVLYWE
For assay [10], the target named is chimeric CD1a pool B protein [human CD1a lipid binding domain, mouse CD1d Ig domain] (human; mouse) (UniProt P06126). The assay can be described thus: ELISA, 0.0316 µg/ml antibody.
The target of assay [11] is T2, human CD1a protein (pool B). The assay is described as follows: ELISA, 100 µg/ml antibody.
For assay [12], the target named is chimeric CD1a pool B protein [human CD1a lipid binding domain, mouse CD1d Ig domain] (human; mouse) (UniProt P06126). The assay can be described thus: ELISA, 100 µg/ml antibody.
Assay [13] addresses T3, Cynomolgus monkey CD1a protein. The assay can be described thus: ELISA, 1 µg/ml antibody.
The target in assay [14] is T2, human CD1a protein (pool B). The assay is described as follows: ELISA, 10 µg/ml antibody.
Assay [15] has as its target chimeric CD1a pool B protein [human CD1a lipid binding domain, mouse CD1d Ig domain] (human; mouse) (UniProt P06126). The assay is described as follows: ELISA, 0.1 µg/ml antibody.
Assay [16] has as its target Chinese variant CD1a protein (human) (UniProt P06126). The assay can be described thus: ELISA, 0.1 µg/ml antibody.
The target in assay [17] is T3, Cynomolgus monkey CD1a protein. The assay is described as follows: ELISA, 10 µg/ml antibody.
The target of assay [18] is Chinese variant CD1a protein (human) (UniProt P06126). The assay can be described thus: ELISA, 0.01 µg/ml antibody.
Assay [19] has as its target T2, human CD1a protein (pool B). The assay is described as follows: ELISA, 31.6 µg/ml antibody.
The target in assay [20] is chimeric CD1a pool B protein [human CD1a lipid binding domain, mouse CD1d Ig domain] (human; mouse) (UniProt P06126). The assay is described as follows: ELISA, 31.6 µg/ml antibody.
Assay [21] shares this target. The assay is described as follows: ELISA, 0.316 µg/ml antibody.
The target is the same in assay [22]. The assay is described as follows: ELISA, 1 µg/ml antibody.
Assay [23] has as its target Chinese variant CD1a protein (human) (UniProt P06126). The assay is described as follows: ELISA, 1 µg/ml antibody.
Assay [24] concerns the target T2, human CD1a protein (pool B). The assay is described as follows: ELISA, 0.1 µg/ml antibody.
The target is the same in assay [25]. The assay is described as follows: ELISA, 1 µg/ml antibody.
Assay [26] addresses T3, Cynomolgus monkey CD1a protein. The assay is described as follows: ELISA, 0.01 µg/ml antibody.
Assay [27] concerns the target T1, human CD1a expressed on cells. The assay can be described thus: flow cytometry of ear skin cells of CD1a transgenic mice given isotype control (CD1a : iso), stained with SK9; gated population not named on the sheet; no percent sign printed.
The target is the same in assay [28]. The assay is described as follows: flow cytometry of ear skin cells of CD1a transgenic mice given antibody 116 100 µg i.p. on days 0, 2, 4 (CD1a : OX116), stained with SK9 on day 5; no percent sign printed.
The target in assay [29] is T4, Human CD1a/β2m heterodimer (soluble, de-glycosylated) (human, UniProt P61769 21-119).
T4 construct: Expressed in HEK293S cells with fos-jun zippers, BirA tag and His-tag, which were cleaved off with thrombin; deglycosylated with EndoH; Carries endogenous lipids or a loaded lipid (named under assay); also called CD1a-endo; CD1a-sphingomyelin
The assay is described as follows: SPR, OX16-scFv immobilised on streptavidin chip, CD1a-endo (endogenous lipids) injected up to 1000 nM; 1:1 specific binding fit of response against concentration; row printed as Kd, unit nM from the legend paragraph 90.

The target in assay [30] is T4, Human CD1a/β2m heterodimer (soluble, …). The assay can be described thus: SPR, OX16-scFv immobilised, CD1a-LPC (lysophosphatidylcholine) injected up to 1000 nM; 1:1 specific binding fit; row printed as Kd, unit nM from the legend paragraph 90. In general terms: In SPR one partner is held on a chip, and binding of the other changes the refractive index at the surface.

The target is the same in assay [31]. The assay can be described thus: SPR, OX16-scFv immobilised, CD1a-SM24:1 (sphingomyelin) injected up to 1000 nM; 1:1 specific binding fit; row printed as Kd, unit nM from the legend paragraph 90.
Assay [32] has the same target. The assay can be described thus: SPR, OX16-scFv immobilised, CD1a-GD3 (GD3 ganglioside) injected up to 1000 nM; 1:1 specific binding fit; row printed as Kd, unit nM from the legend paragraph 90.
Assay [33] shares this target. The assay is described as follows: SPR, OX116-scFv immobilised on streptavidin chip, CD1a-endo (endogenous lipids) injected up to 1000 nM; 1:1 specific binding fit of response against concentration; row printed as Kd, unit nM from the legend paragraph 90.
The target is the same in assay [34]. The assay is described as follows: SPR, OX116-scFv immobilised, CD1a-SM24:1 (sphingomyelin) injected up to 1000 nM; 1:1 specific binding fit; row printed as Kd, unit nM from the legend paragraph 90.
For assay [35] the target is unchanged. The assay can be described thus: SPR, OX116-scFv immobilised, CD1a-LPC (lysophosphatidylcholine) injected up to 1000 nM; 1:1 specific binding fit; row printed as Kd, unit nM from the legend paragraph 90.
The target is the same in assay [36]. The assay can be described thus: SPR, OX116-scFv immobilised, CD1a-GD3 (GD3 ganglioside) injected up to 1000 nM; 1:1 specific binding fit; row printed as Kd, unit nM from the legend paragraph 90.
For assay [37], the target named is chimeric CD1a pool B protein [human CD1a lipid binding domain, mouse CD1d Ig domain] (human; mouse) (UniProt P06126). The assay is described as follows: ELISA on chimeric CD1a (human alpha 1 and alpha 2 domains, murine CD1d alpha 3 domain), size exclusion pool B; antibody concentration not given.
The target of assay [38] is T2, human CD1a protein (pool B). The assay can be described thus: Biacore, column KD1 of the heterogeneous ligand model; no unit on the sheet or in the legend, M taken from Table 10 of the same Biacore method.
The target is the same in assay [39]. The assay is described as follows: Biacore, column KD2 of the heterogeneous ligand model; no unit on the sheet or in the legend, M taken from Table 10 of the same Biacore method.
For assay [40], the target named is Chinese variant CD1a protein (human) (UniProt P06126). The assay can be described thus: ELISA on coated minor CD1A variant protein; antibody concentration not given.

T2 sequence (P06126 18-295 limits assumed): as the sequence (P06126 18-295, change not shown) above

In the case of HI149 (antibody), the CD1a+ (gate frequency) in assay [1] was determined as 82.2%; in assay [2], 46.6%.
As to control rabbit IgG antibody, the Optical Density (OD) in [3] worked out at 0.07 OD; in [4], 0.06 OD; in [5], 0.06 OD; in assay [6] it was 0.1 OD; in assay [7], 0.07 OD; in assay [8], 0.08 OD. For the same molecule, the Optical Density (OD) is 0.14 OD in assay [9]; 0.09 OD in assay [10]; 0.07 OD in [11]; 0.08 OD in assay [12]; 0.07 OD in assay [13]; 0.07 OD in [14]. Also, the Optical Density (OD) in assay [15] amounted to 0.08 OD; in assay [16], 0.08 OD; in [17], 0.09 OD; in assay [18], 0.08 OD; in assay [19], 0.06 OD; in assay [20] it was 0.08 OD. For the same molecule, the Optical Density (OD) was 0.09 OD in assay [21]; 0.09 OD in assay [22]; 0.08 OD in assay [23]; 0.06 OD in [24]; 0.07 OD in [25]; 0.06 OD in assay [26].
In the case of SK9 (antibody), the CD1a+ (gate frequency) in assay [27] turned out to be 84.9%; in assay [28], 87.4%.

B1: OX16 scFv (scFv)
scFv: DAEVQLVESGGGLVKPGGSLKLSCAASGFTFSNYAMSWVRQTPEKRLEWVAAINSNGGSAYYPDTVKDRFTISRDNAKNTLYLQMSSLRSEDTALYYCARRFYYDYGWFAYWGQGTLVTVSSGGGGSGGGGSGGGGSDIVLTQSPASLSASVGETVTITCRASENIDSYLAWYQQKQGKSPQLLVYAATLLADGVPSRFSGSGSGTQYSLKINSLQSEDVARYYCQHYYSSPWTFGGGTKLEIKSGLEVLFQGPGSGLNDIFEAQKIEWHEHHHHHH
notes: SPR: biotinylated on the C-terminal tag and coupled to streptavidin; Crystals: BirA and His-tag cleaved off with 3C protease; also called 16 ScFv full; single chain variable construct of OX16
The Kd is the equilibrium constant for the complex coming apart. As to B1, the Kd in [29] was 476 nM; in assay [30], 1010 nM; in assay [31], 860 nM; in assay [32] it was 1270 nM.

B2: OX116 scFv (scFv)
scFv: DAQSVEESGGRLVTPGTPLTLTCTVSGFSLSNYAMSWVRQAPGKGLEWIGIIYTTGFTYYASWVKGRFTISKTSTTVDLKITSPTTEDTATYFCARGLATYVSPPTRLDLWGQGTLVTVSSGGGGSGGGGSGGGGSAQVLTQTPSPVSAAVGGTVTINCQASQSIYNSKNLAWYQQKPGQPPKLLIYSASTLASGVPSRFKGSGSGTQFTLTISDLESDDAATYYCQGEFSCSSVDCATFGGGTEVVVKSGLEVLFQGPGSGLNDIFEAQKIEWHEHHHHHH
notes: SPR: biotinylated on the C-terminal tag and coupled to streptavidin; Crystals: tags cleaved off with 3C protease; also called OX116 Ab fragment
On to B2, for which the Kd in assay [33] turned out to be 483 nM; in assay [34], 529 nM; in assay [35], 1520 nM; in assay [36], 329 nM.

B3: OX25 (antibody, V domains shown)
VH: QVQLQQSGPGLVAPSQSLFITCTVSGFSLTTYEINWVRQPPGKGLEWLGVIWTGGSTNYNSALISRLSISKDNSKSLVFLKMNSLQTDDTAIYYCVRTLPYYYAMDYWGQGTSVTVSS
VL: EIVLTQSPALMAASPGEKVTITCSVSSSISSSNLHWYQQKSGTSPKPWIYGTSNLASGVPVRFSGSGSGTSYSLTISSMEAEDAATYYCQQWSSYPPTFGSGTKLEIK
notes: also called antibody 25; Ab 25
B3: the values for the optical density (ELISA) in assay [37] and in assay [40] were 0.11 and 0.736, respectively. The values for the equilibrium dissociation constant (Kd) in assay [38] and in assay [39] were 15 nM and 2.1 nM, respectively.

(Values after patent US20250289893A1 (OXFORD UNIVERSITY INNOVATION, published 2025).)
